Test results as given in patent publication US20070116673.

What was measured:
[1] = target: T1, synthetic integrin α1 cytoplasmic tail peptide (RPLKKKMEKRPLKKKMEK)
T1 chain: RPLKKKMEKRPLKKKMEK

[2] = target: T2, α2 peptide KLGFFKRKYEKMTKNPDEIDETTELSS (synthetic integrin α2 cytoplasmic tail peptide)
T2 chain: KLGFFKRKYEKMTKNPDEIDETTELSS

B1: endogenous TCPTP (T cell protein tyrosine phosphatase) of HeLa cells (protein)
chain: MPTTIEREFEELDTQRRWQPLYLEIRNESHDYPHRVAKFPENRNRNRYRDVSPYDHSRVKLQNAENDYINASLVDIEEAQRSYILTQGPLPNTCCHFWLMVWQQKTKAVVMLNRIVEKESVKCAQYWPTDDQEMLFKETGFSVKLLSEDVKSYYTVHLLQLENINSGETRTISHFHYTTWPDFGVPESPASFLNFLFKVRESGSLNPDHGPAVIHCSAGIGRSGTFSLVDTCLVLMEKGDDINIKQVLLNMRKYRMGLIQTPDQLRFSYMAIIEGAKCIKGDSSIQKRWKELSKEDLSPAFDHSPNKIMTEKYNGNRIGLEEEKLTGDRCTGLSSKMQDTMEENSESALRKRIREDRKATTAQKVQQMKQRLNENERKRKRWLYWQPILTKMGFMSVILVGAFVGWTLFFQQNAL
[1]
  catalytic activity of immunoprecipitated TCPTP (diFMUP substrate): increased 2.95±0.48 fold
[2]
  catalytic activity of immunoprecipitated TCPTP (diFMUP substrate): the corresponding α2 tail peptide had no effect

B2: SHP-2 (protein tyrosine phosphatase immunoprecipitated from HeLa lysates) (protein)
chain: TSRRWFHPNITGVEAENLLLTRGVDGSFLARPSKSNPGDFTLSVRRNGAVTHIKIQNTGDYYDLYGGEKFATLAELVQYYMEHHGQLKEKNGDVIELKYPLNCADPTSERWFHGHLSGKEAEKLLTEKGKHGSFLVRESQSHPGDFVLSVRTGDDKGESNDGKSKVTHVMIRCQELKYDVGGGERFDSLTDLVEHYKKNPMVETLGTVLQLKQPLNTTRINAAEIESRVRELSKLAETTDKVKQGFWEEFETLQQQECKLLYSRKEGQRQENKNKNRYKNILPFDHTRVVLHDGDPNEPVSDYINANIIMPEFETKCNNSKPKKSYIATQGCLQNTVNDFWRMVFQENSRVIVMTTKEVERGKSKCVKYWPDEYALKEYGVMRVRNVKESAAHDYTLRELKLSKVGQGNTERTVWQYHFRTWPDHGVPSDPGGVLDFLEEVHHKQESIMDAGPVVVHCSAGIGRTGTFIVIDILIDIIREKGVDCDIDVPKTIQMVRSQRSGMVQTEAQYRFIYMAVQHYIETLQRRIEEEQKSKRKGHEYTNIKYSLADQTSGDQSPLPPCTPTPPCAEMREDSARVYENVGLMQQQKSFR
[1]
  phosphatase activity of immunoprecipitated SHP-2 (diFMUP substrate): another protein tyrosine phosphatase, SHP-2, was not activated by either peptide
[2]
  phosphatase activity of immunoprecipitated SHP-2 (diFMUP substrate): another protein tyrosine phosphatase, SHP-2, was not activated by either peptide
